Experimental findings from US20250130242A1 are described below.

Assay [1] concerns the target S24201 antibody. In words: competitive ELISA; coated C1A2-01-BSA (printed C1A1-02-BSA), S24201 125 ng/mL, competitive peptide 1.6 ng/ml. Background: An ELISA detects its analyte on a solid surface through an enzyme-linked reagent.
The target of assay [2] is S24201 antibody. Description: competitive ELISA; coated C1A2-01-BSA (printed C1A1-02-BSA), S24201 125 ng/mL, competitive peptide 200 ng/ml.
Assay [3] deals with S24201 antibody. In words: competitive ELISA; coated C1A2-01-BSA (printed C1A1-02-BSA), S24201 125 ng/mL, competitive peptide 5000 ng/ml.
For assay [4], the target named is S24201 antibody. In words: competitive ELISA; coated C1A2-01-BSA (printed C1A1-02-BSA), S24201 125 ng/mL, competitive peptide 40 ng/ml.
Assay [5] concerns the target S24201 antibody. In words: competitive ELISA; coated C1A2-01-BSA (printed C1A1-02-BSA), S24201 125 ng/mL, competitive peptide 1000 ng/ml.
Assay [6] addresses S24201 antibody. In words: competitive ELISA; coated C1A2-01-BSA (printed C1A1-02-BSA), S24201 125 ng/mL, competitive peptide 0 ng/ml (baseline without competitor).
In assay [7] the target is S24201 antibody. In words: competitive ELISA; coated C1A2-01-BSA (printed C1A1-02-BSA), S24201 125 ng/mL, competitive peptide 8 ng/ml.
The target in assay [8] is S24201 antibody. In words: competitive ELISA; coated C1A2-01-BSA (printed C1A1-02-BSA), S24201 125 ng/mL, competitive peptide 0.32 ng/ml.

Non-standard residues stand in square brackets, D forms with d. No end group written: not given here. pGlu = O=C1CC[C@@H](C(=O)O)N1

Consider [pGlu]SLQEETVRK [peptide C1A2-02 (J…)], for which the Absorbance at wavelength 492 nm (absorbance at 492 nm) amounted to 0.735 with S24201 antibody [1]; 0.306 with S24201 antibody [2]; 0.074 with S24201 antibody [3]; 0.541 with S24201 antibody [4]; 0.142 with S24201 antibody [5]; 0.752 in the assay with S24201 antibody [6]. Besides, the results for the Absorbance at wavelength 492 nm (absorbance at 492 nm) with S24201 antibody [7] and with S24201 antibody [8] were 0.668 and 0.712, respectively.
For the molecule QSLQEETVRK [peptide C1A2-03 (…)], the Absorbance at wavelength 492 nm (absorbance at 492 nm) with S24201 antibody [1] is 0.7; with S24201 antibody [2] it was 0.652; in the assay with S24201 antibody [3], 0.313; in the assay with S24201 antibody [4], 0.693; in the assay with S24201 antibody [5], 0.521; in the assay with S24201 antibody [6] it was 0.702. Besides, the Absorbance at wavelength 492 nm (absorbance at 492 nm) was found to be 0.681 in the assay with S24201 antibody [7] and 0.706 with S24201 antibody [8].
